Assay results as given in patent EP3919077A1.

Biological target: human FcγRIIB (CD32B) on peripheral B cells (human) (UniProt P31994)
Assay: in vivo receptor occupancy on peripheral B cells of human subjects after infusion of 100 mg BI-1206 (preliminary clinical data)

UniProt P31994, sequence (P31994 43-310): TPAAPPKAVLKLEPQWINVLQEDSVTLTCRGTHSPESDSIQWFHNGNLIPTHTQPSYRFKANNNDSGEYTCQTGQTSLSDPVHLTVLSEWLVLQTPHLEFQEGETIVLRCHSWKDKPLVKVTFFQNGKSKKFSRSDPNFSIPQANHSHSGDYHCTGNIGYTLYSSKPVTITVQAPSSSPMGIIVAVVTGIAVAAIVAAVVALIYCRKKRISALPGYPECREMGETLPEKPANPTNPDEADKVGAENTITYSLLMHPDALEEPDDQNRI

receptor occupancy: 100%
Substance: BI-1206 (antibody)
